One data set relates to Botrytis cinerea conidia. Briefly: In vitro liquid-based assay (fungal biomass, 96-well plates, Cytation 5). The data set is classed as cell-based. Conditions: co-incubated with conidia for three days, vs untreated control. As for the experimental part: Fungal culture. The Botrytis cinerea was plated each week the culture onto Malt Extract Agar (MEA) from long-term storage on silica stored at 4° C. Three pellets of silica were added to the center of a MEA agar plate and grown at room temperature without parafilm/tape seal for 10-14 days before use; a culture 12 days old was typically used.
Spore and media preparation. A pure culture of B. cinerea was flooded with a 0.01% Triton x-100 solution and conidia scraped free with a sterile hockey stick. The suspension was transferred to two, 1.5 mL centrifuge tubes and centrifuged at 8000 rpm for two minutes. The supernatant was discarded, pelleted spores washed twice with sterile water, then resuspended in sterile water. Conidia were quantified using a hemacytometer and diluted to a final concentration of 5000 conidia/mL stock. A stock solution of 1.25× minimal media was prepared for the assay setup using the components below. Once the stock solution was made, the pH was adjusted to 6.0 using NaOH or KOH, then filter sterilized through a 0.2 um filter tower and vacuum pump and stored at 4° C. The Kao & Michayluk Vitamins (100×) is a filter sterilized stock solution. The stock contains vitamins and amino acids as described by Kao & Michayluk. After filter sterilization, 20 mg of 4-Aminobenzoic acid in 100 ml of solution was added.
Experimental setup. Screening assays were setup in 96-well plates with conidia co-incubated with treatments (controls and dsRNAs) for three days before determining fungal biomass. Each treatment was replicated eight times within a single plate. In each well consisted of 12.5 μl of conidia suspension, 25 μl of the treatment, 12.5 μl of sterile deionized water, and 200 μl of minimal media. Each plate was covered with a breath right film and placed in the percival growth chamber at 23° C. on the shaking platform set to 120 RPM with 24-hour lighting. Plates were incubated for 72 hours before determining fungal growth.
Reading assay plate. Fungal biomass was determined by reading plates with the Cytation 5 machine. The program was set to compile 8 photo slices per well under brightfield microscopy with a 2.5× lens to measure biomass.
Data analysis. Analysis will automatically run on Cytation5 to determine final biomass.
Results are shown in Table 1B representing the average reduction in biomass vs. control for tested sequences across several runs described above.

Data set [1] relates to Botrytis cinerea B05.10 isolate. Briefly: Greenhouse whole plant assay (tomato 'Lanai', disease severity). The data set is classed as in vivo. The conditions noted are these: final rating day (rating #3). As for the experimental part: Plant Tissue: Tomato seedlings, variety “Lanai”, were seeded then thinned to one plant per pot in an 18 cell tray. […] Plants were grown at a 23° C./17° C. day/night temperature with 10 hours of light each 24-hour period. The RH was ambient and plants were fertilized two times a day every day except for Sunday when they received only water. Plants were grown using Fafard brand medium (70-80% sphagnum peat moss, perlite, vermiculite, dolomite limestone and watering agent) for the entire experiment.
Fungal culture. A Botrytis cinerea B05.10 isolate was maintained, and spores were harvested as previously described for detached leaf assays, except a grape juice additive was not used for inoculum preparation.
Treatment of plants. Whole tomato plants were treated ˜24 hours before inoculation using the spray booth. A 0.07% Silwet L-77 solution was used as a spreader and added for a 0.07% final volume in water (Silwet L-77 brand Phyto Technology Laboratories, S7777 Lot #14D7777001 F). The spray booth deck was set to 20″ above the plant canopy and a twinjet 8002EVS nozzle with 100 mesh filter placed into the spray mechanism. The spray boom was calibrated before treatment application with specs as follows: 50 GPA rate, 1.25 MPH speed, 6′ spray length, single pass, and at 45 psi to get a catch of 133 mL in 10 seconds (+/−6 mL). Each treatment was replicated ten times for each experimental run.
Inoculation. Plants were inoculated using a mist-o-matic applicator, which is pressurized by manual pumping. The inoculum suspension was poured into the mist-o-matic immediately before inoculation in the GH space. The containers were only filled half-way and inoculum was applied evenly to the surface of all foliage with even coverage.
Incubation. Plants were incubated inside of a 40″ tall humidity chamber supported by PVC pipe and covered in 3M translucent plastic. A humidifier was inside the chamber and set to low and continuous humidity (filled with tap water). The temperature was D:24-20° C./N:20-18° C. with 15 hours of light, of which 9 hours was with supplemental lighting. RH was ambient and watering occurred everyday by sub-irrigation with the bench being flooded for 10 minutes before draining.
Rating. Tomato plants were rated three times during the two-week experiment with rating starting four days post-inoculation and occurring every three to four days after the initial rating date. Plants were rated for the number of lesions and disease severity, which is the percentage of the plant that was symptomatic including necrotic lesions, pathogen sporulation, and chlorosis.
Data analysis. […] Percent disease severity (%DS) was determined by the percent area of the tomato foliage with symptoms including lesions, chlorosis, necrosis, and wilting. Disease severity was rated at three dates (Rating #) over the 12-day test period. Treatments were compared to the untreated, inoculated control and a chemical standard. Statistical analysis was done using SAS JMP version 13.2.1 with treatments compared to the untreated, inoculated control and a chemical standard using Tukey-Kramer and student's T tests.

Data set [2] relates to Botrytis cinerea isolate (B05.10). Briefly: Detached leaf assay (tomato leaflets, lesion size). Conditions: five days post inoculation, vs untreated inoculated control. The format is in vivo. As for the experimental part: Plant tissue. Tomato plants, variety Brandywine, were grown in the greenhouse for 3 weeks before harvesting the first true leaves for assays. Nodes 2-4 were prioritized for harvest and only lateral leaflets were used for assays. Leaflets of approximately the same size were used each week and were randomized among treatments. Detached leaflets were immediately brought into the lab for treatment and used within 4 hours of harvest. Detached leaflets were kept at 4° C. until they were treated and placed onto a 1% water agar medium for incubation.
Fungal culture. A Botrytis cinerea isolate (B05.10) was preserved on silica for long-term storage and pulled from these tubes stored at 4° C. for growth on a nutritive medium. Three pellets of silica were added to the center of a Malt Extract Agar (MEA) agar plate and grown at room temperature without parafilm/tape seal for ˜14 days, or until abundant conidia formation, before use.
Treatment of leaflets. Leaflets were treated 24 hours before inoculation and applied using an atomizer to get a fine mist of small droplets entirely covering the leaflet. Silwet L-77 was used as a spreader and added for a 0.03% final concentration (Silwet L-77 brand Phyto Technology Laboratories, S7777 Lot #14D7777001 F). The inoculated control was sprayed with the same volume of sterile DI water with Silwet L-77 in the absence of fungicide or experimental material. Leaflets were spray treated by laying them on a paper towel and holding the atomizer ˜6″ away from the leaflet for applications. Treated leaves were placed on a 1% water agar (10 g Bacto Agar, Difco, in 1 L deionized water, sterilized for 30 minutes at 121° C. and poured when reached a temp of 55° C. into 100×20 mm Petri dishes), with lids of the Petri dishes placed back on before putting Petri dishes under plastic bags to maintain humidity before inoculation the following day. Petri dishes of treated leaflets were left on the lab counter until the following day. Each treatment was replicated ten times with each replicate being a single treated leaflet with two inoculation sites, one on each side of the leaf midvein.
Inoculation. The conidial suspension was prepared by pouring a 7% white grape juice solution onto the culture plate, then scraping the plate with a sterile spatula to dislodge the spores and mycelia. The grape juice solution was prepared by mixing Welch's brand organic white grape juice into sterile deionized water. After dislodging the spores and mycelia of the culture, the suspension was poured through two layers of cheesecloth to remove fungal mycelia and catch the conidial suspension in a clean 50 mL conical tube. Approximately 3 uL of TWEEN 20 was added to conidial suspension to prevent sticking to conical tube. The spore concentration was determined using a Neubauer Improved hemocytometer and inoculum was diluted with more 7% grape juice until a spore concentration of 1×10^5 conidia/mL was reached. Inoculum was used to inoculate host tissue within 2 hours of preparation. Each tomato leaflet was inoculated twice, with inoculation sites placed one per side of the leaflet midvein. A 10 μL volume of spore suspension was placed at each inoculation site using a repeater pipette. Special care was taken not to touch the tip to leaflet surface to avoid contamination between treatments.
Incubation. Petri dishes were placed on lunch trays 6 plates high and moved to an incubator. The incubator was humidity controlled and holds at ˜75% relative humidity. The incubator was kept on 12/12 light/dark days and is set to a temperature of 23° C.
Rating. Measurements were taken at five days post inoculation (DPI). Each lesion that developed was measured using electronic calipers in 2 directions perpendicular to each other to help determine lesion diameter.
Data analysis. Data was analyzed using the SAS JMP statistical program (version 13.2.1) with comparisons made to the untreated, inoculated control. […]

B1: GS413: dsRNA trigger targeting B. cinerea NBP35 (XM_001552213.2); trigger SEQ ID NO 15, RNA 27, reverse complement 39 (nucleic acid, listed as Botrytis cinerea)
sense: GCAAAAUUCCAUUGUUGCUUUGUAAACAUCCAUCCUACGACUUUAUUAUCUCAUCGAUCAUCCCACAAUUUACAUUUUCCAUUUUACACUCAAUAAACAAUUGAAAAACAAUAUUCUGAGUUGGUCGCAGUAAAUCAUGGCUCCAUCUCUUGAGGAAAGGCCCGAUGCUGUGCAAGACGUCCUCUCAAAUCCUCUCAAAAAUGCUCCCAAACUUGUCGCCCCAGAACCUGAACAUUGUCCCGGUCCAGAAUCCGAAGCGGCGGGAAAGGCAGAUUCUUGCGCGGGCUGUCCAAACCAAGCCAUAUGCGCAUCCGCACCCAAAGGUCCCGAUCCAGAUAUUCCAGCUAUAACUGCACGUCUUGCUGGUAUCAAACAUAAAGUCUUAAUUCUGUCGGGGAAAGGUGGUGUAGGAAAAAGCACAUUUACAACUUUACUUGCACAUGCCUUCGCAACAAAUGAGGACAACACAGUAGGAAUCAU
antisense: AUGAUUCCUACUGUGUUGUCCUCAUUUGUUGCGAAGGCAUGUGCAAGUAAAGUUGUAAAUGUGCUUUUUCCUACACCACCUUUCCCCGACAGAAUUAAGACUUUAUGUUUGAUACCAGCAAGACGUGCAGUUAUAGCUGGAAUAUCUGGAUCGGGACCUUUGGGUGCGGAUGCGCAUAUGGCUUGGUUUGGACAGCCCGCGCAAGAAUCUGCCUUUCCCGCCGCUUCGGAUUCUGGACCGGGACAAUGUUCAGGUUCUGGGGCGACAAGUUUGGGAGCAUUUUUGAGAGGAUUUGAGAGGACGUCUUGCACAGCAUCGGGCCUUUCCUCAAGAGAUGGAGCCAUGAUUUACUGCGACCAACUCAGAAUAUUGUUUUUCAAUUGUUUAUUGAGUGUAAAAUGGAAAAUGUAAAUUGUGGGAUGAUCGAUGAGAUAAUAAAGUCGUAGGAUGGAUGUUUACAAAGCAACAAUGGAAUUUUGC
Regarding B1, the results for the “Average % Reduction in Biomass” value with Botrytis cinerea conidia (25 ppm dsRNA) and in the data set on Botrytis cinerea conidia (150 ppm dsRNA) were 14% and 53%, respectively. Also, the “% control” value in data set [1] (8 g ai/ha, two runs, three-week-old 'Lanai' tomato plant) came to 34%; in data set [1] (25 g ai/ha, two runs, three-week-old 'Lanai' tomato plant) it was 26%. In addition, the “Average % Reduction in Lesion Size” value in data set [2] (30 ppm) was 35.58%; in data set [2] (50 ppm), 20.66%.

B2: GS659: dsRNA trigger targeting B. cinerea SDH (XM_001548300.2_200_pos_342); trigger SEQ ID NO 16, RNA 28, reverse complement 40 (nucleic acid, listed as Botrytis cinerea)
sense: UCAGAUGCGAACCAUGGCAUCAGUCGACAGCUCAGUACCUGAAAGUCCUACCGUUUCUCCAUCCCGUCCUGUCGAAUCUGCUUCCAAGACCUCCACUGUCAAGGAACCUGCUGCCGACUCGGAGUCUUUGAUCAAGACAUUCAACAUUUACAGAUGGAACCCAGAUGAGCCAACCAGCAAGCCCCGCAUGCAAUCUUACA
antisense: UGUAAGAUUGCAUGCGGGGCUUGCUGGUUGGCUCAUCUGGGUUCCAUCUGUAAAUGUUGAAUGUCUUGAUCAAAGACUCCGAGUCGGCAGCAGGUUCCUUGACAGUGGAGGUCUUGGAAGCAGAUUCGACAGGACGGGAUGGAGAAACGGUAGGACUUUCAGGUACUGAGCUGUCGACUGAUGCCAUGGUUCGCAUCUGA
Regarding B2, the “Average % Reduction in Biomass” value came out at 12% in the data set with Botrytis cinerea conidia (25 ppm dsRNA) and 28% in the data set on Botrytis cinerea conidia (150 ppm dsRNA). Besides, the “% control” value in data set [1] (25 g ai/ha, three runs, four-week-old 'Lanai' tomato plant) amounted to 29%. For the same molecule, the entries for the “Average % Reduction in Lesion Size” value in data set [2] (30 ppm) and in data set [2] (50 ppm) were 21.31% and 19.19%, respectively.

These data come from patent publication US20230189818A1, “RNA-BASED CONTROL OF BOTRYTIS” (priority 2021, published 2023).
